We go through 13 molecules from article doi:10.1101/2025.11.05.686883 (bioRxiv, 2025).

Numbering of substitutions follows the chain as printed. Where two headings read alike, the source gives them in different places.

Experiment [1] addresses T1, HCV-1 sE1E2.Cut1+2.SPYΔN-His6 (Hepatitis C virus genotype 1a, isolate …, UniProt P26664, stabilised). The experiment can be described thus: negative-stain electron microscopy.
The target in another experiment is HCV-1 E1E2 (Hepatitis C virus genotype 1a, isolate …, UniProt P26664, strain). The experiment is described as follows: ELISA. Background: In an ELISA, binding on a coated surface is turned into a signal by an enzyme label.
The target in experiment [2] is T1, HCV-1 sE1E2.Cut1+2.SPYΔN-His6. The experiment is described as follows: BLI. Background: BLI is a label-free optical method that tracks binding on a fibre tip over time.
Experiment [3] shares this target. The experiment is described as follows: BLI. This is another data set of the same source.
For experiment [4], the target named is T2, H77 E1E2, wild type (Hepatitis C virus genotype 1a, isolate …). The experiment can be described thus: ELISA.
In experiment [5] the target is T2, H77 E1E2, wild type. The experiment can be described thus: ELISA. The source holds these as a separate data set.

B1: AR4A Fab (Fab, V domains shown)
VH: VQLLEQSGPEVKKPGDSLRISCKMSGDSLVTTWIGWVRQKPGQGLEWMGIINPGDSSTNIYPGDSATRYGPSFQGQVTISIDKSTSTAYLQWNNVKASDTGIYYCARHVPVPISGTFLWREREMHDFGYFDDWGQGTLVIVSS
VL: ELTLTQSPGTLSLSPGERATLSCRASQSVSNNYLAWYQQKPGQAPRLLIYGASSRATGIPDRFSGSGSGTGFTLIISRLEPEDFAVYYCQQYGSSSITFGQGTRLEIK
B1: the binding result in experiment [1] was “binds”.

B2: AR4A (IgG) (antibody, V domains shown)
VH: B1 VH
VL: B1 VL
Take B2: the binding result (with HCV-1 E1E2; in experiment [2]) was “binds” throughout.

B3: K595 Fab (Fab, V domains shown)
VH: EVQLLESGGGLVQPGGSLRLSCAASGFTFSNYVMTWARQAPGKGLEWVSSISDSGGNADYAHSVRGRFTISRDNSKNTLFLHMNSLRVEDTAVYHCAKALIAPGSLFRDQLLNWFDFWGQGTRVTVSS
VL: DIQMTQSPSTLSASVGDRVTITCRASQSIGNWLAWYQQKPGKAPKLLIYQASTLKSGVPSRFSGSGSGTEFSLTISSLQPDDLATYFCQQYNGSPLTFAGGTKVEIK
As to B3, the binding result in experiment [1] is “binds”.

B4: K595 (antibody) (antibody, V domains shown)
VH: B3 VH
VL: B3 VL
As to B4, the binding result in the experiment with HCV-1 E1E2 is given as “binds”.

B5: RM3-26 (IgG) (antibody, V domains shown)
VH: QLQLQESGPGLVKPSETLSLTCIVSGGSISGYSWNWIRQPPGKGLEWIGNIFSGGDDANYNPSLKSRVTLSVDTSKNHFSLRLSSVTAADTAVYYCARHSAGFITGRYFELWGQGALVTVSS
VL: DIQMTQSPSSLSASLGDRVTITCRANQDISSSLAWYQQKPGKAPKPLIYYASNLESGVPSRFRGSGSGTEFTLTISSLQSEDFAVYYCQQYNSDPLTFGGGTKVEIK
On to B5, for which the binding result in experiment [3] was “binds”.

B6: RM3-26 variant, heavy chain CDRH3 R100c to alanine, wild-type light chain (antibody, V domains shown)
VH: B5 VH with R107A
VL: B5 VL
For the molecule B6, in the experiment with H77 E1E2, wild type [4], the binding result is reported as “binds”.

B7: RM3-26 variant, heavy chain CDRH3 Y100d to alanine, wild-type light chain (antibody, V domains shown)
VH: B5 VH with Y108A
VL: B5 VL
As to B7, the binding result in the experiment with H77 E1E2, wild type [4] was “no binding (tested: 1 µg/mL (methods))”.

B8: RM3-26 variant, heavy chain CDRH1 Y32 to alanine, wild-type light chain (antibody, V domains shown)
VH: B5 VH with Y32A
VL: B5 VL
B8: in the experiment with H77 E1E2, wild type [4], the binding result was “binds”.

B9: RM3-26 variant, light chain CDRL3 Y91 to alanine, wild-type heavy chain (antibody, V domains shown)
VH: B5 VH
VL: B5 VL with Y91A
As to B9, the binding result in the experiment with H77 E1E2, wild type [4] is given as “binds”.

B10: RM3-26 variant, light chain CDRL2 Y50 to alanine, wild-type heavy chain (antibody, V domains shown)
VH: B5 VH
VL: B5 VL with Y50A
On to B10, for which the binding result with H77 E1E2, wild type [4] is “binds”.

B11: RM3-26 variant, heavy chain CDRH3 T100a to alanine, wild-type light chain (antibody, V domains shown)
VH: B5 VH with T105A
VL: B5 VL
In the case of B11, the binding result with H77 E1E2, wild type [4] is on record as “no binding (tested: 1 µg/mL (methods))”.

B12: K400 Fab (Fab, V domains shown)
VH: EVQLVQSGAEVKTPGASVRVSCTASGDTFTNHDIHWVRQAPGQGLEWMGGMNADSGKTAYAQKFQGRVSMTINTPTNTAYMDLSSLRSEDTALYYCARGDGLDFTLFGVAHYSYYNGVGVWGHGTTITVSS
VL: EIVMTQSPLALPVTPGEPASIFCKSSHSLLHYNGYTYLDWYLQKPGQSPQLLIYLGSNRASGVPDRFSGSGSGTEFTLKISRVEAEDVGVYYCMQALQTPITFGQGTRLEIK
With B12, the binding result in experiment [1] was “binds”.

B13: K400 (antibody) (antibody, V domains shown)
VH: B12 VH
VL: B12 VL
B13: the binding result is on record as “binds” in the experiment with HCV-1 E1E2 and “binds” with H77 E1E2, wild type [5].
